Experimental data reported in article PMC10745820, “Bode Phase Angle Signaling of a TB Disease Biomarker”.

Target: interferon gamma (IFN-γ) (UniProt P01579 24-161)
Test: electrochemical impedance aptasensor (Bode phase angle); spiked pleural fluid, IFN-γ 0.2-2.2 pg/mL; linear 0.2-1.2 pg/mL; LOD 0.09 (abstract) or 0.11 pg/mL; no Kd; aptamer-free control sensor only slight change; Aptamer folded in 0.1 M phosphate buffer, 10 mM KCl, 2 mM MgCl2 (90 °C 10 min, 4 °C 5 min, RT 10 min); IFN-γ in spiked pleural fluid; EIS in phosphate buffer/PBS pH 7.4; binding temperature not stated
Conditions: chain copies: 2

interferon gamma (IFN-γ), sequence (P01579 24-161): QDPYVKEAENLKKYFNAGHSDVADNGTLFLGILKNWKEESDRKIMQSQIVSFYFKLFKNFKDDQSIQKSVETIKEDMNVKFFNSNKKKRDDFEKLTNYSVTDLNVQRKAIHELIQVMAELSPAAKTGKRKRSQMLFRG

CGGCGAAGGCACGTGTGGGGTGGTCGCGT (ssDNA, 5' thiol (5ThioMC6-D, printed as 5thiolMCS-D)) [29-mer anti-IFN-γ aptamer]
binding result: binds
